This assay concerns the target PTHR1 receptor.

* marks the point of attachment. Palmitoyl = CCCCCCCCCCCCCCCC(=O)*

PTHR1 receptor, sequence (P25961 whole entry): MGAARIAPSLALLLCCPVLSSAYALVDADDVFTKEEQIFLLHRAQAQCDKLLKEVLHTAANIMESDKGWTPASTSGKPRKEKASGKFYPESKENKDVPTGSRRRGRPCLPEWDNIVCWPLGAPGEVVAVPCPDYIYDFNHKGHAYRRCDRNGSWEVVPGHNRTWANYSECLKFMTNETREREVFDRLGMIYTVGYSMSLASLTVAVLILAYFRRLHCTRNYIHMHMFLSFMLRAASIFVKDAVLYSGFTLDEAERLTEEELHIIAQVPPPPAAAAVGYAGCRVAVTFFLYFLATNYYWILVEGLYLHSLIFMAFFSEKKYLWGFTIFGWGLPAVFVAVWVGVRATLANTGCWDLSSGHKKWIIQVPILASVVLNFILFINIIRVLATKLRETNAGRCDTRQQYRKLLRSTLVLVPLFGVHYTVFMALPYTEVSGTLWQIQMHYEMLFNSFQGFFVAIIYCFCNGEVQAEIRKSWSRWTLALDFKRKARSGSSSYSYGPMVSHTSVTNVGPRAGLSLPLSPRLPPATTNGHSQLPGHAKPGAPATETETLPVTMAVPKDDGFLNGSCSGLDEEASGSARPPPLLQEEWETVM

B1: Compound 72 (peptide)
peptide: Palmitoyl-SGRVLATKLRET-NH2
SMILES: CCCCCCCCCCCCCCCC(=O)N[C@@H](CO)C(=O)NCC(=O)N[C@@H](CCCNC(=N)N)C(=O)N[C@H](C(=O)N[C@@H](CC(C)C)C(=O)N[C@@H](C)C(=O)N[C@H](C(=O)N[C@@H](CCCCN)C(=O)N[C@@H](CC(C)C)C(=O)N[C@@H](CCCNC(=N)N)C(=O)N[C@@H](CCC(=O)O)C(=O)N[C@H](C(N)=O)[C@@H](C)O)[C@@H](C)O)C(C)C
As for B1, the Fold Shift of EC50 came out at 0.7 fold and the Inhibition of Maximal Response stood at 22.3%.

B2: Compound 4 (peptide)
peptide: Palmitoyl-LAYFRRLHSTR-NH2
SMILES: CCCCCCCCCCCCCCCC(=O)N[C@@H](CC(C)C)C(=O)N[C@@H](C)C(=O)N[C@@H](Cc1ccc(O)cc1)C(=O)N[C@@H](Cc1ccccc1)C(=O)N[C@@H](CCCNC(=N)N)C(=O)N[C@@H](CCCNC(=N)N)C(=O)N[C@@H](CC(C)C)C(=O)N[C@@H](Cc1c[nH]cn1)C(=O)N[C@@H](CO)C(=O)N[C@H](C(=O)N[C@@H](CCCNC(=N)N)C(N)=O)[C@@H](C)O
On to B2, for which the Fold Shift of EC50 was 0.9 fold and the Inhibition of Maximal Response is -74.2%.

B3: Compound 73 (peptide)
peptide: Palmitoyl-SGRVLATKLRETNA-NH2
SMILES: CCCCCCCCCCCCCCCC(=O)N[C@@H](CO)C(=O)NCC(=O)N[C@@H](CCCNC(=N)N)C(=O)N[C@H](C(=O)N[C@@H](CC(C)C)C(=O)N[C@@H](C)C(=O)N[C@H](C(=O)N[C@@H](CCCCN)C(=O)N[C@@H](CC(C)C)C(=O)N[C@@H](CCCNC(=N)N)C(=O)N[C@@H](CCC(=O)O)C(=O)N[C@H](C(=O)N[C@@H](CC(N)=O)C(=O)N[C@@H](C)C(N)=O)[C@@H](C)O)[C@@H](C)O)C(C)C
Consider B3, for which the Fold Shift of EC50 stood at 0.8 fold and the Inhibition of Maximal Response was 32.3%.

B4: Compound 17 (peptide)
peptide: Palmitoyl-SGRRLHSTRNYIHMH-NH2
SMILES: CCCCCCCCCCCCCCCC(=O)N[C@@H](CO)C(=O)NCC(=O)N[C@@H](CCCNC(=N)N)C(=O)N[C@@H](CCCNC(=N)N)C(=O)N[C@@H](CC(C)C)C(=O)N[C@@H](Cc1c[nH]cn1)C(=O)N[C@@H](CO)C(=O)N[C@H](C(=O)N[C@@H](CCCNC(=N)N)C(=O)N[C@@H](CC(N)=O)C(=O)N[C@@H](Cc1ccc(O)cc1)C(=O)N[C@H](C(=O)N[C@@H](Cc1c[nH]cn1)C(=O)N[C@@H](CCSC)C(=O)N[C@@H](Cc1c[nH]cn1)C(N)=O)[C@@H](C)CC)[C@@H](C)O
As to B4, the Fold Shift of EC50 turned out to be 2.8 fold and the Inhibition of Maximal Response stood at 39.4%.

B5: Compound 43 (peptide)
peptide: Palmitoyl-GSEKKYLWG-NH2
SMILES: CCCCCCCCCCCCCCCC(=O)NCC(=O)N[C@@H](CO)C(=O)N[C@@H](CCC(=O)O)C(=O)N[C@@H](CCCCN)C(=O)N[C@@H](CCCCN)C(=O)N[C@@H](Cc1ccc(O)cc1)C(=O)N[C@@H](CC(C)C)C(=O)N[C@@H](Cc1c[nH]c2ccccc12)C(=O)NCC(N)=O
As to B5, the Fold Shift of EC50 came to 1.4 fold and the Inhibition of Maximal Response worked out at 5.7%.

B6: Compound 41 (peptide)
peptide: Palmitoyl-GSEKKYLWGFTVF-NH2
SMILES: CCCCCCCCCCCCCCCC(=O)NCC(=O)N[C@@H](CO)C(=O)N[C@@H](CCC(=O)O)C(=O)N[C@@H](CCCCN)C(=O)N[C@@H](CCCCN)C(=O)N[C@@H](Cc1ccc(O)cc1)C(=O)N[C@@H](CC(C)C)C(=O)N[C@@H](Cc1c[nH]c2ccccc12)C(=O)NCC(=O)N[C@@H](Cc1ccccc1)C(=O)N[C@H](C(=O)N[C@H](C(=O)N[C@@H](Cc1ccccc1)C(N)=O)C(C)C)[C@@H](C)O
On to B6, for which the Fold Shift of EC50 worked out at 0.9 fold and the Inhibition of Maximal Response came out at 17.7%.

B7: Compound 75 (peptide)
peptide: Palmitoyl-RVLATKLRETNAGR-NH2
SMILES: CCCCCCCCCCCCCCCC(=O)N[C@@H](CCCNC(=N)N)C(=O)N[C@H](C(=O)N[C@@H](CC(C)C)C(=O)N[C@@H](C)C(=O)N[C@H](C(=O)N[C@@H](CCCCN)C(=O)N[C@@H](CC(C)C)C(=O)N[C@@H](CCCNC(=N)N)C(=O)N[C@@H](CCC(=O)O)C(=O)N[C@H](C(=O)N[C@@H](CC(N)=O)C(=O)N[C@@H](C)C(=O)NCC(=O)N[C@@H](CCCNC(=N)N)C(N)=O)[C@@H](C)O)[C@@H](C)O)C(C)C
For B7, the Fold Shift of EC50 was found to be 1.1 fold and the Inhibition of Maximal Response turned out to be 12.6%.

B8: Compound 42 (peptide)
peptide: Palmitoyl-GSEKKYLWGFT-NH2
SMILES: CCCCCCCCCCCCCCCC(=O)NCC(=O)N[C@@H](CO)C(=O)N[C@@H](CCC(=O)O)C(=O)N[C@@H](CCCCN)C(=O)N[C@@H](CCCCN)C(=O)N[C@@H](Cc1ccc(O)cc1)C(=O)N[C@@H](CC(C)C)C(=O)N[C@@H](Cc1c[nH]c2ccccc12)C(=O)NCC(=O)N[C@@H](Cc1ccccc1)C(=O)N[C@H](C(N)=O)[C@@H](C)O
Take B8: the Fold Shift of EC50 stood at 1.3 fold and the Inhibition of Maximal Response came to 40.8%.

B9: Compound 16 (peptide)
peptide: Palmitoyl-RRLHSTRNYIHMHL-NH2
SMILES: CCCCCCCCCCCCCCCC(=O)N[C@@H](CCCNC(=N)N)C(=O)N[C@@H](CCCNC(=N)N)C(=O)N[C@@H](CC(C)C)C(=O)N[C@@H](Cc1c[nH]cn1)C(=O)N[C@@H](CO)C(=O)N[C@H](C(=O)N[C@@H](CCCNC(=N)N)C(=O)N[C@@H](CC(N)=O)C(=O)N[C@@H](Cc1ccc(O)cc1)C(=O)N[C@H](C(=O)N[C@@H](Cc1c[nH]cn1)C(=O)N[C@@H](CCSC)C(=O)N[C@@H](Cc1c[nH]cn1)C(=O)N[C@@H](CC(C)C)C(N)=O)[C@@H](C)CC)[C@@H](C)O
For the molecule B9, the Fold Shift of EC50 stood at 2.45 fold and the Inhibition of Maximal Response came out at 0.0965.

B10: Compound 74 (peptide)
peptide: Palmitoyl-SGRVLATKLRETNAGR-NH2
SMILES: CCCCCCCCCCCCCCCC(=O)N[C@@H](CO)C(=O)NCC(=O)N[C@@H](CCCNC(=N)N)C(=O)N[C@H](C(=O)N[C@@H](CC(C)C)C(=O)N[C@@H](C)C(=O)N[C@H](C(=O)N[C@@H](CCCCN)C(=O)N[C@@H](CC(C)C)C(=O)N[C@@H](CCCNC(=N)N)C(=O)N[C@@H](CCC(=O)O)C(=O)N[C@H](C(=O)N[C@@H](CC(N)=O)C(=O)N[C@@H](C)C(=O)NCC(=O)N[C@@H](CCCNC(=N)N)C(N)=O)[C@@H](C)O)[C@@H](C)O)C(C)C
Regarding B10, the Fold Shift of EC50 is 1.9 fold and the Inhibition of Maximal Response amounted to 22.2%.

B11: Compound 15 (peptide)
peptide: Palmitoyl-RRLHSTRNYIHM-NH2
SMILES: CCCCCCCCCCCCCCCC(=O)N[C@@H](CCCNC(=N)N)C(=O)N[C@@H](CCCNC(=N)N)C(=O)N[C@@H](CC(C)C)C(=O)N[C@@H](Cc1c[nH]cn1)C(=O)N[C@@H](CO)C(=O)N[C@H](C(=O)N[C@@H](CCCNC(=N)N)C(=O)N[C@@H](CC(N)=O)C(=O)N[C@@H](Cc1ccc(O)cc1)C(=O)N[C@H](C(=O)N[C@@H](Cc1c[nH]cn1)C(=O)N[C@@H](CCSC)C(N)=O)[C@@H](C)CC)[C@@H](C)O
In the case of B11, the Fold Shift of EC50 came out at 1.7 fold and the Inhibition of Maximal Response amounted to 1.5%.
